± gives the standard deviation.

The data set can be described thus: collision cross section of modified peptide (TIMS, N2, iRT-aligned); higher = larger / more extended gas-phase ion. How it is done:
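1/K0 was aligned run-wise to spiked iRT peptides and converted to CCS in N2 (Mason-Schamp). Values are the mean of 1-3 technical replicates for the most abundant feature at each charge state.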

[1] abbreviates: charge state: 2, modification: HexNAc (ST).
[2] abbreviates: charge state: 2, modification: Methyl (K).
Setting [3] is: charge state: 3, modification: Methyl (K).
The mark [4] stands for this setting: charge state: 2, modification: Phospho (Y).
Setting [5] is: charge state: 2, modification: Trimethyl (K).
[6] abbreviates: charge state: 3, modification: Trimethyl (K).
[7] abbreviates: charge state: 2, modification: Nitro (Y).
[8] abbreviates: charge state: 2, modification: Glutarylation.
The mark [9] stands for this setting: charge state: 3, modification: Glutarylation.
Where [10] appears, read: charge state: 2, modification: Propionyl.
The mark [11] stands for this setting: charge state: 2, modification: Hydroxyproline.
Where [12] appears, read: charge state: 3, modification: Hydroxyproline.
Setting [13] is: charge state: 2, modification: Acetyl (K).
Where [14] appears, read: charge state: 2, modification: Butyryl.
The mark [15] stands for this setting: charge state: 3, modification: Propionyl.
Setting [16] is: charge state: 2, modification: Formyl.
[17] abbreviates: charge state: 3, modification: Methyl (R).
Setting [18] is: charge state: 3, modification: GlyGly (K).
Where [19] appears, read: charge state: 3, modification: Dimethyl (K).
The mark [20] stands for this setting: charge state: 2, modification: Malonyl.
Where [21] appears, read: charge state: 3, modification: Malonyl.
Where [22] appears, read: charge state: 2, modification: Methyl (R).
The mark [23] stands for this setting: charge state: 2, modification: Dimethyl (K).

Under setting [1], IVNVSLADLR [_IVNVS(HexNAc (ST))LADLR_] registered a collision cross section of 388.29 ± 1.2 Å². Consider “TLQKQSVVYGGK [_TLQK(Methyl (K))QSVVYGGK_]”, for which the collision cross section under setting [2] is recorded as 395.77 ± 1.4 Å² and the collision cross section under setting [3] is 446.7 ± 4.9 Å². For the substance VYPSSLSK [_VY(Phospho (Y))PSSLSK_], the collision cross section under setting [4] is reported as 344.53 ± 0.066 Å². APIISGVTK [_APIIS(HexNAc (ST))GVTK_] gave a collision cross section under setting [1] of 340.53 ± 0.64 Å². Turning to “VYIASSSGSTAIKK [_VYIASSSGSTAIK(Trimethyl (K))K_]”, the collision cross section under setting [5] amounted to 434.92 ± 0.58 Å² and the collision cross section under setting [6] stood at 501.36 ± 1.6 Å². Regarding “VTRYPILGIPQAHR [_VTR(Citrullination (R))YPILGIPQAHR_]”, for the setting “charge state: 3, modification: Citrullination (R)”, the collision cross section turned out to be 520.51 ± 0.78 Å².

Under setting [7], LDLSSLAYSGK [_LDLSSLAY(Nitro (Y))SGK_] showed a collision cross section of 385.74 ± 0.17 Å². For the substance “VYIASSSGSTAIKK [_VYIASSSGSTAIK(Gluratylation)K_]”, the collision cross section is recorded as 420.03 ± 1.5 Å² under setting [8] and 512.2 ± 1 Å² under setting [9]. “TLQKQSVVYGGK [_TLQK(Propionyl)QSVVYGGK_]” came in with a collision cross section under setting [10] of 393.92 ± 0.49 Å². Take “LGPPGNPGPSGSPGPK [_LGPPGNP(Hydroxyproline)GPSGSPGPK_]”: the collision cross section runs as follows: under setting [11], 386.54 ± 0.27 Å²; under setting [12], 431.89 Å². As to IQQELQTAKK [_IQQELQTAK(Acetyl (K))K_], the collision cross section reads like this: under setting [13], 374.24 ± 0.38 Å²; (charge state: 3, modification: Acetyl (K)) 435.9 ± 0.91 Å². Consider LQLEIDQKK [_LQLEIDQK(Trimethyl (K))K_], for which the collision cross section reads like this: under setting [5], 370.49 ± 1.6 Å²; under setting [6], 433.51 ± 3.7 Å². In turn, SKLLFSNTAAQK [_SK(Butyryl)LLFSNTAAQK_] displayed a collision cross section under setting [14] of 402.3 ± 1.3 Å². Consider “GEVGAGAGPGAQAGPSAKR [_GEVGAGAGPGAQAGPSAK(Propionyl)R_]”, for which the collision cross section reads like this: under setting [10], 422.82 ± 0.97 Å²; under setting [15], 482.16 ± 0.88 Å². Consider LTSLNVKYNNDK [_LTSLNVK(Formyl)YNNDK_], for which the collision cross section under setting [16] was 404.27 ± 0.2 Å².

As for “GEPGIPAIPGIRGPK [_GEPGIP(Hydroxyproline)AIPGIRGPK_]”, the collision cross section is, setting by setting: under setting [11], 382.81 ± 0.54 Å²; under setting [12], 511.46 ± 1.2 Å². “VTPHPSPRGSPLPTPK [_VTPHPSPR(Methyl (R))GSPLPTPK_]” returned a collision cross section under setting [17] of 512.12 ± 9.6 Å². The substance “DSINFLDHINGKK [_DSINFLDHINGK(GlyGly (K))K_]” returned a collision cross section under setting [18] of 464.41 ± 1.6 Å².

Turning to “VDVEVPDVSLEGPEGKLK [_VDVEVPDVSLEGPEGK(Methyl (K))LK_]”, the collision cross section is 462.48 ± 7.8 Å² under setting [2] and 551.69 ± 1.3 Å² under setting [3]. Turning to “YEEIVKEVSTYIK [_YEEIVK(Dimethyl (K))EVSTYIK_]”, the collision cross section under setting [19] is given as 492.52 Å². On to VGEFSGANKEK [_VGEFSGANK(Formyl)EK_], for which the collision cross section under setting [16] came out at 358.59 ± 1.4 Å².

For the substance “GSLEKGSPEDK [_GSLEK(Trimethyl (K))GSPEDK_]”, the collision cross section is, setting by setting: under setting [5], 363.82 ± 0.64 Å²; under setting [6], 436.7 ± 2.4 Å². The like results for “TTGFYSGFSEVAEKR [_TTGFYSGFSEVAEK(Trimethyl (K))R_]” were, in that order, 459.26 Å² and 508.85 ± 1.6 Å². As for “VNALKNLQVK [_VNALK(hydroxyisobutyryl)NLQVK_]”, where the note is “charge state: 2, modification: hydroxyisobutyryl”, the collision cross section worked out at 374.85 ± 0.8 Å². As for “VGVEVPDVNIEGPEGKLK [_VGVEVPDVNIEGPEGK(GlyGly (K))LK_]”, the collision cross section by setting is: (charge state: 2, modification: GlyGly (K)) 464.33 ± 1.3 Å²; under setting [18], 509.72 ± 1.9 Å². Substance IQTKAGEATVK [_IQTK(Acetyl (K))AGEATVK_] yielded a collision cross section under setting [13] of 364.34 ± 0.62 Å². Turning to “VNALKNLQVK [_VNALK(Trimethyl (K))NLQVK_]”, the collision cross section by setting is: under setting [5], 379.91 ± 0.019 Å²; under setting [6], 418.46 ± 2.4 Å². In turn, “LLIVSTTPYSEKDTK [_LLIVSTTPYSEK(Gluratylation)DTK_]” showed a collision cross section under setting [8] of 462.31 ± 1.5 Å² and a collision cross section under setting [9] of 493.7 ± 1.3 Å². As for VIVGGSSEYK [_VIVGGSSEY(Nitro (Y))K_], under setting [7], the collision cross section amounted to 344.24 ± 0.72 Å².

“GSLGAQKLANTCFNEIEK [_GSLGAQK(Malonyl)LANTCFNEIEK_]” returned a collision cross section under setting [20] of 466.18 Å² and a collision cross section under setting [21] of 511.38 Å².

On to ITGKNQVTATK [_ITGK(Propionyl)NQVTATK_], for which the collision cross section under setting [10] came to 368.3 ± 0.65 Å². Consider “DDSFLGKLGGTLAR [_DDSFLGK(Malonyl)LGGTLAR_]”, for which the collision cross section by setting is: under setting [20], 411.31 ± 1 Å²; under setting [21], 489.57 ± 2.2 Å².

On to “ISSNFSSIIAEKLR [_ISSNFSSIIAEK(Crotonyl)LR_]”, for which the collision cross section (charge state: 2, modification: Crotonyl) worked out at 435.72 Å². The substance “DYSSGFGGKYGVQADR [_DYSSGFGGK(Butyryl)YGVQADR_]” gave a collision cross section under setting [14] of 438.71 ± 1.6 Å².

Turning to GRGGAESHTFK [_GR(Methyl (R))GGAESHTFK_], the collision cross section by setting is: under setting [22], 352.3 ± 2.4 Å²; under setting [17], 441.34 ± 2.6 Å².

As for GLPGEKGER [_GLP(Hydroxyproline)GEKGER_], the collision cross section by setting is: under setting [11], 345.98 ± 0.8 Å²; under setting [12], 396.91 ± 2 Å². Consider “FGTINIVHPKLGSYTK [_FGTINIVHPK(Methyl (K))LGSYTK_]”, for which the collision cross section runs as follows: under setting [2], 470.37 Å²; under setting [3], 541.06 ± 0.45 Å².

Turning to “GTISAPGKVVTAAAQAK [_GTISAPGK(Formyl)VVTAAAQAK_]”, the collision cross section under setting [16] was found to be 440.5 ± 0.16 Å² and the collision cross section (charge state: 3, modification: Formyl) was 511.74 ± 2.1 Å².

In turn, FEGAIYR [_FEGAIY(Nitro (Y))R_] came in with a collision cross section under setting [7] of 321.92 ± 0.71 Å². Consider SFEDIHQYR [_SFEDIHQY(Nitro (Y))R_], for which the collision cross section by setting is: under setting [7], 368.15 ± 0.17 Å²; (charge state: 3, modification: Nitro (Y)) 453.82 ± 1.2 Å². Turning to “DTPTSAGPNSFNKGK [_DTPTSAGPNSFNK(Dimethyl (K))GK_]”, the collision cross section is, setting by setting: under setting [23], 406.79 ± 1.1 Å²; under setting [19], 455.12 ± 1.6 Å². On to SKLLFSNTAAQK [_SK(Biotin)LLFSNTAAQK_], for which, where the note is “charge state: 2, modification: Biotin”, the collision cross section is 417.26 ± 2.9 Å². With “VSPASSVDSNIPSSQGYKK [_VSPASSVDSNIPSSQGYK(Trimethyl (K))K_]”, the collision cross section under setting [6] was 548.09 ± 0.9 Å². On to “ITESVAETAQTIKK [_ITESVAETAQTIK(Dimethyl (K))K_]”, for which the collision cross section under setting [23] was found to be 449.13 ± 1.2 Å² and the collision cross section under setting [19] amounted to 499.12 ± 1.6 Å².

In the case of “PANEKATDDYHYEK [_PANEK(Propionyl)ATDDYHYEK_]”, the collision cross section under setting [15] was found to be 507.47 ± 0.5 Å². Regarding “SFDEVEGVFGRGGGR [_SFDEVEGVFGR(Methyl (R))GGGR_]”, the collision cross section is reported as 429.58 ± 1.6 Å² under setting [22] and 513.29 ± 1.2 Å² under setting [17]. Turning to “AYPLADAHLTK [_AY(Phospho (Y))PLADAHLTK_]”, the collision cross section is given as 380.31 ± 0.063 Å² under setting [4] and 465.22 ± 1 Å² (charge state: 3, modification: Phospho (Y)). “PGSPGPPGSPGPR [_PGSPGPPGSP(Hydroxyproline)GPR_]”: the collision cross section under setting [11] was found to be 352.39 ± 1.1 Å².

These data come from the supplement of paper PMC10598134.
